Measurements as given in US20220267440A1 (ABSOS, published 2022).

B1: anti-CD47 AlivaMab antibody 151 (antibody, IgG1, V domains shown)
VH: QVQLQESGPGLVKPSETLSLTCTVSGGSISSYYWSWIRQPPGKGLEWIGYIYYSGSTNYNPSLKSRVTISVDTSKNQFSLKLSSVTAADTAVYYCARKRKYFDYWGQGTLVTVSS
VL: DIQMTQSPSSLSASVGDRVTITCRASQGISNYLAWYQQKPGKVPKLLIYAASTLQSGVPSRFSGSGSGTDFTLTISSLQPEDVATYYCQKCNSAPFTFGPGTKVDIK
notes: Chimeric AlivaMab Mouse mAb from hybridoma: human V, CH1 and upper hinge, mouse middle hinge, CH2 and CH3, human kappa light chain; also called clone 151; mAb 151
B2: anti-CD47 AlivaMab antibody 139 (antibody, IgG1, V domains shown)
VH: QVQLQESGPGLVKPSETLSLTCTVSGGSISNYYWSWIRQPPGKGLEWIGYIYYSGSTNYNPSLKSRVTISVDTSKNQFSLKLSSVTAADTAVYYCARSRYFDLWGRGTLVTVSS
VL: DIQMTQSPSAMSASVGDRVTITCRASQGISIYLAWFQQKPGKVPKRLIYAASSLQSGVPSRFSGSGSGTEFTLTISSLQPEDFATYYCLQHTSYPYTFGQGTKLEIK
notes: Chimeric AlivaMab Mouse mAb from hybridoma: human V, CH1 and upper hinge, mouse middle hinge, CH2 and CH3, human kappa light chain

What was measured:
[1] = target: T1, recombinant CD47-Fc (Sino Biologics) (human, UniProt Q08722 19-139); assay: competition ELISA: HIS-tagged SIRP α binding to plate-bound CD47-Fc, antibody titrated
T1 construct: Bought reagent; also called human CD47-Fc; not shown: Fc

[2] = target: T2, recombinant human CD47 (Novoprotein cat no. C321, lot no. 0329689) (human, UniProt Q08722 19-139); assay: SPR summary table, 25 C
T2 construct: Bought reagent
Experimental: (§1) Binding kinetics were measured at 25° C. using a BioRad ProteOn XPR36 optical biosensor equipped with GLM sensor chips and equilibrated with running buffer (HBS, 0.005% TWEEN-20, 0.1 mg/mL BSA, pH 7.4).
(§2) CD47 was tested in a three-fold dilution series starting at 100 nM.

[3] = target: T2, recombinant human CD47 (Novoprotein cat …); assay: SPR (ProteOn XPR36), mAb captured on anti-mouse Fc, CD47 as analyte, 25 C, 1:1 model
Experimental: as §1, §2

[4] = target: T2, recombinant human CD47 (Novoprotein cat …); assay: SPR, antibodies binned by kd at 25 C (value is the column's head)
Experimental: as §1, §2

[5] = target: T2, recombinant human CD47 (Novoprotein cat …); assay: SPR summary table, 25 C; kd fixed
Experimental: (§3) Affinity was determined for five selected AlivaMab Mouse monoclonal hybridoma supernatants (Biosensor Tools, Salt Lake City, Utah). Binding kinetics were measured at 25° C. using a BioRad ProteOn XPR36 optical biosensor equipped with GLM sensor chips and equilibrated with running buffer (HBS, 0.005% TWEEN-20, 0.1 mg/mL BSA, pH 7.4).
as §2

[6] = target: T2, recombinant human CD47 (Novoprotein cat …); assay: SPR (ProteOn XPR36), mAb captured on anti-mouse Fc, CD47 as analyte, 25 C; kd fixed, KD a rough estimate
Experimental: as §3, §2

[7] = target: T2, recombinant human CD47 (Novoprotein cat …); assay: SPR (ProteOn XPR36), mAb captured on anti-mouse Fc, CD47 as analyte, 25 C; no decay detected, kd fixed at 1e-5 in the fit; no decay seen; kd fixed at 1e-5 in the fit
Experimental: as §3, §2

[8] = target: T2, recombinant human CD47 (Novoprotein cat …); assay: SPR summary table, 25 C; dissociation rate constant fixed at 1e-5 s^-1; summary table; kd fixed at 1e-5
Experimental: as §3, §2

Binder	IC50 [1] [nM]	Kd [2] [nM]	koff [2] [s⁻¹]	kon [2] [M⁻¹ s⁻¹]	Kd [3] [nM]	koff [3] [s⁻¹]	kon [3] [M⁻¹ s⁻¹]	koff [4] [s⁻¹]	Kd [5] [nM]	Kd [6] [nM]	koff [7] [s⁻¹]	koff [8] [s⁻¹]
B1	2	1	0.0089	8.7e+06	1	0.0089	8.7e+06	~0.01	–	–	–	–
B2	2.2	–	–	1.18e+06	–	–	1.18e+06	≤ 1e-05	~0.009	≤ 0.0085	≤ 1e-05	≤ 1e-05
